Data on two substances can be found in article doi:10.1101/2025.09.20.677498.

Broadly, the stoichiometry N is a count of units in the complex or per binding partner.

Test [1] concerns the target HAdV-D10 penton base (human adenovirus type 10 (HAdV-D10)). Description: cryo-EM structure.
Test [2] concerns the target HAdV-D10 fiber protein (human adenovirus type 10 (HAdV-D10)). Description: cryo-EM structure.

Consider HAdV-D10 penton base (natural protein), for which the stoichiometry N in test [1] was 5. In the case of “HAdV-D10 fiber protein (natural protein)”, the stoichiometry N in test [2] was found to be 3.
